# Assay results: patent US20220154156A1, “PROTEINS AND METHODS FOR DISRUPTING BACTERIAL COMMUNICATION” (REGENTS OF THE UNIVERSITY OF MINNESOTA, priority 2019, published 2022)
# B1: SsoPox W263I: improved variant of the hyperthermostable lactonase SsoPox from Sulfolobus solfataricus, exhibiting higher catalytic rates (protein, UniProt Q97VT7 1-314, looked up, variant W263I)
# Aryldialkylphosphatase: MRIPLVGKDSIESKDIGFTLIHEHLRVFSEAVRQQWPHLYNEDEEFRNAVNEVKRAMQFGVKTIVDPTVMGLGRDIRFMEKVVKATGINLVAGTGIYIYIDLPFYFLNRSIDEIADLFIHDIKEGIQGTLNKAGFVKIAADEPGITKDVEKVIRAAAIANKETKVPIITHSNAHNNTGLEQQRILTEEGVDPGKILIGHLGDTDNIDYIKKIADKGSFIGLDRYGLDLFLPVDKRNETTLRLIKDGYSDKIMISHDYCCTIDIGTAKPEYKPKLAPRWSITLIFEDTIPFLKRNGVNEEVIATIFKENPKKFFS
# Columns and labels:
# [1] = system: Pectobacterium carotovorum CIR354; experiment: Soft rot potato assay; assay type: in vivo; conditions: single spraying of 1 mL, 10 mg/mL
# Method: (§1) FIG. 30A-30F show control of plant infections by a single spraying of 1 mL of lactonase solution (10 mg/mL) on plant leaves and crop. (A) and (B) Soft rot potato assay.
# (§2) Specifically, we could establish infection systems for corn, wheat, and barley plants, and a crop infection system for potato (tubers and leaves).
# [2] = system: Xanthomonas translucens pv. undulosa LMG892; experiment: Wheat leaf infection; assay type: in vivo; conditions: single spraying of 1 mL, 10 mg/mL
# Method: as §1, §2
# [3] = Lactonase assay (pH indicator, cresol purple), kinetic measurements; assay type: biochemical; conditions: AHL acyl chain length
# Method: Kinetic measurements. The determination of GcL catalytic efficiency was performed by using a microplate reader (Synergy HTX, BioTek, USA) and the software Gen5.1 over a range of substrates (FIG. 2). The reactions were operate in a 96-well plate at a path length of 5.8 mm for a 200 μl reaction volume at room temperature. The catalytic parameters were achieved by fitting the data to Michaelis-Menten equation with the Graph-Pad Prism 5 software. When, Vmax was not reached, the catalytic efficiency was determined by fitting the linear part of Michaelis-Menten plot to a linear regression using Graph-Pad Prism 5.
# Lactonase assay. The AHL lactonolysis consisting in the opening of the lactone ring generates a proton, and leads to an acidification of the media. This property allowed the characterization of the lactonases by using a pH indicator assay. To perform the experiment 5 μl of enzyme were added to a solution containing 10 μl of substrates at various concentrations and 185 μl of lactonase buffer (2.5 mM Bicine pH 8.3, 150 mM NaCl, 0.2 mM CoCl2, 0.2 mM cresol purple, 0.5% DMSO). This assay was performed at 25° C. and the time course of the lactones hydrolysis was recorded at 577 nm. The characterization of the enzyme was proceeding against a large panel of AHLs: C4-AHL, C6-AHL, C8-AHL, C10-AHL, 3-oxo-C8-AHL and against γ-Butyrolactone, γ-Heptalactone, γ-Nonalactone, γ-Decanolactone, δ-Valerolactone, δ-Octanolactone, δ-Nonalactone, δ-Decalactone, ε-Caprolactone, ε-Decalactone, Whiskey lactone.
# [4] = 25° C., purified protein sample; cited from earlier work
# [5] = system: suspension soil microbial community; experiment: Effect of lactonase on suspension soil community; assay type: cell-based; conditions: 0.5 mg/mL, days 3 and 7
# Method: Inoculum were prepared by re-suspending about 5 grams of soil (taken outside GortnerLab building, Saint Paul Campus, Saint Paul, Minn., USA) in 40 mL of water. After a homogenous mixture was achieved, the suspension was lightly centrifuged (5 min, 500×g) and 200 uL of the cloudy supernatant was added to 30 mL of LB media and allowed to grow overnight. This inoculum was used to inoculate 15× diluted LB media (in water) cultures. […] Samples were collected for DNA extraction after 3 and 7 days.
# All samples were processed using Mothur v1.35.1. For each sample, 1,250 sequences were used for final analyses. […] Analysis of similarity (ANOSIM) and analysis of molecular variances (AMOVA) were used to evaluate the beta diversity (community composition) among samples using Bray-Curtis dissimilarity matrices (BC) (Bray & Curtis 1957; Clarke 1993). Ordination of Bray-Curtis matrices was performed using principal coordinate analysis (PCoA) to further analyze diversity of sample days throughout the tank (Anderson & Willis 2003). To visualize the distribution of taxonomies and diversities in microbial communities among the samples, R v3.3.1 was used to conduct the normalized relative abundance and OTUs at genus level^45. All of alpha values evaluated at α=0.05.
# [6] = system: P. syringae pv. Phaseolicola; experiment: Kidney bean plant infection; assay type: in vivo; conditions: sprayed, 14 days, multiple inoculations
# Method: Plants were inoculated twice (day 1 and day 6) with 5×10^6 cells P. syringae pv. Phaseolicola. Left, leaves were sprayed with enzyme buffer after the fist inoculation, for right, leaves were sprayed with buffer containing the QQ lactonase (0.5 mg/mL). Pictures were taken at day 14.
# Kidney bean plants were grown and infected with P. syringae pv. Phaseolicola.
# [7] = system: corrosion tubercles on steel coupons; experiment: Biocorrosion of coated steel coupons in Duluth-Superior Harbor water, 8 weeks; set-up: concentration or dose not given beside the values; conditions: silica gel coating, two months in DSH water
# Method: The steel coupons were washed with soap water, lightly brushed for a few seconds with a test tube brush, and then rinsed with Milli-Q water to remove any loose material. Each coupon was designated with a unique number and weighed before being randomly assigned to a specific experimental treatment.
# Each compound or enzyme was added to 5 ml of the silica gel matrix to develop different coating treatments. These coatings were applied by dipping coupons into the appropriate gel mixture for 1 minute, and then the coating on the coupon surface was air-dried at room temperature for 2 hours.
# Six treatments and three controls were investigated for corrosion rate and changes in bacterial communities (Table 10). Each treatment or control contained three replicate steel coupons. After the triplicate steel coupons were coated with each biochemical, enzyme or bacterial treatment, they were incubated in experimental microcosms constructed from 10-gallon glass aquaria (Aqueon Glass, 50.8 cm×25.4 cm×30.5 cm) (FIG. 24). Each microcosm was equipped with an aquarium pump (Aquarium Systems Mini-Jet 404) to constantly circulate the water (˜2 L hr−1), and covered with a piece of acrylic with one corner cut out to allow gas exchange. The coupons were hold with plastic holders and immersed in water taken from the DSH for 8 weeks and then recovered for analyses.
# The coupons in each treatment was photographed by the end of the experiment. Biocorrosion was evaluated by the number and coverage of corrosion tubercles, and also by imaging of coupon surfaces with an environmental scanning electron microscope (ESEM). The coupon images were captured with DSLR camera immediately after being removed from the harbor water, and then tubercle numbers and total area in digital images were measured using the analyze menu within ImageJ software (NIH, Bethesda, Md., USA). Surface roughness measurements were also made after the exposed coupons were cleaned with ASTM G1-90 iron and steel chemical cleaning procedure (2 min in 37% HCl, 50 g/L SnCl2). A Hitachi TM-3030 ESEM was used to view details of the cleaned coupon surface and the 3D-View software was used to generate surface roughness measurements (SRa). Statistics analysis (T-tests) of the tubercle numbers, coverage and surface roughness were performed using Microsoft Excel software.
molecule,measurement,setting,value
B1,maceration of potato slices,[1],less maceration
same,leaf spots on wheat leaves,[2],Absence of leaf spots
same,substrate specificity,[3],not capable of degrading short chain AHLs
same,time remaining stable,[4],> 300 days
same,composition of suspension community vs inactive variant,[5],communities are significantly different
same,protection of kidney bean plant,[6],protected the plant from infection
same,reduction of the coverage of corrosion tubercles,[7],50%
same,reduction of the number (formation) of corrosion tubercles,[7],50%
